{"source": "patent US20230408517A1", "about": "(BIO TECHNE, published 2023)", "key": {"[1]": {"biological_target": "T1, recombinant SARS-CoV-2 spike S1 RBD (R319-F541), C-terminal 6-His (SARS-CoV-2, UniProt P0DTC2 319-541)", "assay": "sandwich dipstick, detector Ab5-AuNP"}, "[2]": {"biological_target": "T2, UK variant RBD (R319-F541 with N501Y), C-terminal 6-His (SARS-CoV-2, UniProt P0DTC2 319-541)", "assay": "sandwich dipstick, detector Ab5-AuNP"}, "[3]": {"biological_target": "T3, SA variant RBD (R319-F541 with K417N, E484K, N501Y), C-terminal 6-His (SARS-CoV-2, UniProt P0DTC2 319-541)", "assay": "sandwich dipstick, detector Ab5-AuNP"}, "[4]": {"biological_target": "T4, BR P.1 variant RBD (R319-F541 with K417T, E484K, N501Y), C-terminal 6-His (SARS-CoV-2, UniProt P0DTC2 319-541)", "assay": "sandwich dipstick, detector Ab5-AuNP"}, "[5]": {"biological_target": "T3, SA variant RBD (R319-F541 with K417N, …)", "assay": "lateral flow NC50, RBD-AuNP vs immobilised ACE2"}, "[6]": {"biological_target": "T4, BR P.1 variant RBD (R319-F541 with …)", "assay": "lateral flow NC50, RBD-AuNP vs immobilised ACE2"}, "[7]": {"biological_target": "T1, recombinant SARS-CoV-2 spike S1 RBD …", "assay": "sandwich dipstick, capture Ab7, detector Ab4-AuNP"}, "[8]": {"biological_target": "T2, UK variant RBD (R319-F541 with N501Y), …", "assay": "sandwich dipstick, capture Ab7, detector Ab4-AuNP"}, "[9]": {"biological_target": "T3, SA variant RBD (R319-F541 with K417N, …)", "assay": "sandwich dipstick, capture Ab7, detector Ab4-AuNP"}, "[10]": {"biological_target": "T4, BR P.1 variant RBD (R319-F541 with …)", "assay": "sandwich dipstick, capture Ab7, detector Ab4-AuNP"}, "[11]": {"biological_target": "T1, recombinant SARS-CoV-2 spike S1 RBD …", "assay": "lateral flow NC50, RBD-AuNP vs immobilised ACE2"}, "[12]": {"biological_target": "T2, UK variant RBD (R319-F541 with N501Y), …", "assay": "lateral flow NC50, RBD-AuNP vs immobilised ACE2"}, "[13]": {"biological_target": "T1, recombinant SARS-CoV-2 spike S1 RBD …", "assay": "lateral flow NC50, RBD-AuNP vs immobilised ACE2", "remark": "listed apart in the source"}, "[14]": {"biological_target": "T2, UK variant RBD (R319-F541 with N501Y), …", "assay": "lateral flow NC50, RBD-AuNP vs immobilised ACE2", "remark": "listed apart in the source"}, "[15]": {"biological_target": "K417E RBD (R319-F541 with K417E) (SARS-CoV-2, UniProt P0DTC2 319-541)", "assay": "lateral flow NC50, RBD-AuNP vs immobilised ACE2"}, "[16]": {"biological_target": "T478K RBD (R319-F541 with T478K) (SARS-CoV-2, UniProt P0DTC2 319-541)", "assay": "lateral flow NC50, RBD-AuNP vs immobilised ACE2"}, "[17]": {"biological_target": "T1, recombinant SARS-CoV-2 spike S1 RBD …", "assay": "flow cytometry, blocking of binding to hACE-2 cells"}, "[18]": {"biological_target": "T1, recombinant SARS-CoV-2 spike S1 RBD …", "assay": "flow cytometry, blocking of binding to hACE-2 cells", "remark": "listed apart in the source"}, "[19]": {"biological_target": "T4, BR P.1 variant RBD (R319-F541 with …)", "assay": "flow cytometry, blocking of binding to hACE-2 cells"}, "[20]": {"biological_target": "T5, IN v2 variant RBD (R319-F541 with L452R, T478K) (SARS-CoV-2, UniProt P0DTC2 319-541)", "assay": "flow cytometry, blocking of binding to hACE-2 cells"}, "[21]": {"biological_target": "rSARS2 RBD aa319-541, N439K, C-His (SARS-CoV-2, UniProt P0DTC2 319-541)", "assay": "flow cytometry, blocking of binding to hACE-2 cells"}, "[22]": {"biological_target": "rSARS2-B.1.1.7 S aa16-1211 2x aa mut., C-His (SARS-CoV-2, UniProt P0DTC2 16-1211)", "assay": "flow cytometry, blocking of binding to hACE-2 cells"}, "[23]": {"biological_target": "rSARS2-B.1.1.7 S aa16-1211 4x aa mut., C-His (SARS-CoV-2, UniProt P0DTC2 16-1211)", "assay": "flow cytometry, blocking of binding to hACE-2 cells"}, "[24]": {"biological_target": "rSARS2-B.1.617.2 S aa16-1211 10+4x aa mut., C-His (SARS-CoV-2, UniProt P0DTC2 16-1211)", "assay": "flow cytometry, blocking of binding to hACE-2 cells"}, "[25]": {"biological_target": "BR P.2 variant RBD (R319-F541 with E484K) (SARS-CoV-2, UniProt P0DTC2 319-541)", "assay": "dipstick, adsorbed RBD spots, Ab 10 µg/mL, GAM-AuNP"}, "[26]": {"biological_target": "L452R RBD (R319-F541 with L452R) (SARS-CoV-2, UniProt P0DTC2 319-541)", "assay": "dipstick, adsorbed RBD spots, Ab 10 µg/mL, GAM-AuNP"}, "[27]": {"biological_target": "IN v1 variant RBD (R319-F541 with L452R, E484Q) (SARS-CoV-2, UniProt P0DTC2 319-541)", "assay": "dipstick, adsorbed RBD spots, Ab 10 µg/mL, GAM-AuNP"}, "[28]": {"biological_target": "T5, IN v2 variant RBD (R319-F541 with …)", "assay": "dipstick, adsorbed RBD spots, Ab 10 µg/mL, GAM-AuNP"}}, "note": "Where two headings read alike, the source gives them in different places."}
{"binder": "1035240 (antibody, V domains shown) VH: QVQLQQSGAELARPGASVKMSCKASGYTFTTYTMHWVKQRPGQGLEWIGYINPSSGYTNYNQKFKDKATLTADTSSSTAYMQLSSLTSEDSAVYYCARRNPLYAMDYWGQGTSVTVSS VL: DIKMTQSPSSMYASLGERVTITCKASQDINSYLNWFQQKPGKSPKTLIYRANRLVDGVPSRFSGSGSGQDYSLTISSLEYEDMGIYYCLQYDEFPYTFGGGTKLEIK", "values": [{"measurement": "detection sensitivity", "setting": "[1]", "result": 0.001, "unit": "µg/mL"}, {"measurement": "detection sensitivity", "setting": "[2]", "result": 0.001, "unit": "µg/mL"}, {"measurement": "detection sensitivity", "setting": "[3]", "result": 0.001, "unit": "µg/mL"}, {"measurement": "detection sensitivity", "setting": "[4]", "result": 0.001, "unit": "µg/mL"}, {"measurement": "IC50", "setting": "[5]", "result": "> 45", "unit": "µg/mL"}, {"measurement": "IC50", "setting": "[6]", "result": "> 45", "unit": "µg/mL"}, {"measurement": "detection sensitivity", "setting": "[7]", "result": 0.01, "unit": "µg/mL"}, {"measurement": "detection sensitivity", "setting": "[8]", "result": 0.01, "unit": "µg/mL"}, {"measurement": "detection sensitivity", "setting": "[9]", "result": 0.1, "unit": "µg/mL"}, {"measurement": "detection sensitivity", "setting": "[10]", "result": 0.1, "unit": "µg/mL"}, {"measurement": "IC50", "setting": "[11]", "result": 0.34, "unit": "µg/mL"}, {"measurement": "IC50", "setting": "[12]", "result": 0.86, "unit": "µg/mL"}, {"measurement": "IC50", "setting": "[13]", "result": 0.34, "unit": "µg/mL"}, {"measurement": "IC50", "setting": "[14]", "result": 0.86, "unit": "µg/mL"}, {"measurement": "IC50", "setting": "[15]", "result": 0.33, "unit": "µg/mL"}, {"measurement": "IC50", "setting": "[16]", "result": 0.61, "unit": "µg/mL"}, {"measurement": "percent blocking", "setting": "[17]", "result": 99.1, "unit": "%"}, {"measurement": "percent blocking", "setting": "[18]", "result": 99.1, "unit": "%"}, {"measurement": "percent blocking", "setting": "[19]", "result": 0, "unit": "%"}, {"measurement": "percent blocking", "setting": "[20]", "result": 0.7, "unit": "%"}, {"measurement": "percent blocking", "setting": "[21]", "result": 49, "unit": "%"}, {"measurement": "percent blocking", "setting": "[22]", "result": 91.2, "unit": "%"}, {"measurement": "percent blocking", "setting": "[23]", "result": 78.6, "unit": "%"}, {"measurement": "percent blocking", "setting": "[24]", "result": 0, "unit": "%"}, {"measurement": "binding result", "setting": "[25]", "result": "no binding (tested: 10 µg/mL)"}, {"measurement": "binding result", "setting": "[26]", "result": "no binding (tested: 10 µg/mL)"}, {"measurement": "binding result", "setting": "[27]", "result": "no binding (tested: 10 µg/mL)"}, {"measurement": "binding result", "setting": "[28]", "result": "no binding (tested: 10 µg/mL)"}]}
